For orientation: Kd means a measure of binding affinity in units of concentration. A low value points to tighter binding. In general, koff refers to the rate constant with which the complex falls apart. A lower koff goes with a long-lived complex.

Where two headings read alike, the source gives them in different places.

These results are taken from paper PMC5628404 (2017).

Test in all cases: SPR
(In general: In SPR one partner is held on a chip, and binding of the other changes the refractive index at the surface.)

Assay [1] addresses T1, M1-linked di-ubiquitin chain (M1-Ub2) (human, UniProt P0CG48 1-76; P0CG48 1-76).
For assay [2], the target named is M1-linked tetra-ubiquitin chain (M1-Ub4) (human, UniProt P0CG48 1-76; P0CG48 1-76; P0CG48 1-76; P0CG48 1-76).
Assay [3] concerns the target M1-linked tri-ubiquitin chain (M1-Ub3) (human, UniProt P0CG48 1-76; P0CG48 1-76; P0CG48 1-76).
For assay [4], the target named is T2, K27-linked di-ubiquitin (K27-Ub2) (human, UniProt P0CG48 1-76, isopeptide linkage between the C-terminal glycine of one ubiquitin and K27 of the other).
In assay [5] the target is T2, K27-linked di-ubiquitin (K27-Ub2). This is another data set of the same source.
Assay [6] deals with T1, M1-linked di-ubiquitin chain (M1-Ub2). This is another data set of the same source.
For assay [7], the target named is T3, K63-linked di-ubiquitin (K63-Ub2) (human, UniProt P0CG48 1-76, isopeptide linkage between the C-terminal glycine of one ubiquitin and K63 of the other).
Assay [8] deals with T2, K27-linked di-ubiquitin (K27-Ub2). This is another data set of the same source.
The target in assay [9] is T1, M1-linked di-ubiquitin chain (M1-Ub2). This is another data set of the same source.
For assay [10], the target named is T3, K63-linked di-ubiquitin (K63-Ub2). The source holds these as a separate data set.

B1: BRAP (124–569) (RNF52 domain) (domain or fragment)
chain: DQISFFSGNPSVEIVHGIMHLYKTNKMTSLKEDVRRSAMLCILTVPAAMTSHDLMKFVAPFNEVIEQMKIIRDSTPNQYMVLIKFRAQADADSFYMTCNGRQFNSIEDDVCQLVYVERAEVLKSEDGASLPVMDLTELPKCTVCLERMDESVNGILTTLCNHSFHSQCLQRWDDTTCPVCRYCQTPEPVEENKCFECGVQENLWICLICGHIGCGRYVSRHAYKHFEETQHTYAMQLTNHRVWDYAGDNYVHRLVASKTDGKIVQYECEGDTCQEEKIDALQLEYSYLLTSQLESQRIYWENKIVRIEKDTAEEINNMKTKFKETIEKCDNLEHKLNDLLKEKQSVERKCTQLNTKVAKLTNELKEEQEMNKCLRANQVLLQNKLKEEERVLKETCDQKDLQITEIQEQLRDVMFYLETQQKINHLPAETRQEIQEGQINIAMASA
Regarding B1, the Kd amounted to 60.8 nM in assay [1], 22 nM in [2], 48.5 nM in assay [3] and 171 nM in [4].

B2: BRAP (1–592) (full-length) (natural protein)
chain: MSVSLVVIRLELAEHSPVPAGFGFSAAAGEMSDEEIKKTTLASAVACLEGKSPGEKVAIIHQHLGRREMTDVIIETMKSNPDELKTTVEERKSSEASPTAQRSKDHSKECINAAPDSPSKQLPDQISFFSGNPSVEIVHGIMHLYKTNKMTSLKEDVRRSAMLCILTVPAAMTSHDLMKFVAPFNEVIEQMKIIRDSTPNQYMVLIKFRAQADADSFYMTCNGRQFNSIEDDVCQLVYVERAEVLKSEDGASLPVMDLTELPKCTVCLERMDESVNGILTTLCNHSFHSQCLQRWDDTTCPVCRYCQTPEPVEENKCFECGVQENLWICLICGHIGCGRYVSRHAYKHFEETQHTYAMQLTNHRVWDYAGDNYVHRLVASKTDGKIVQYECEGDTCQEEKIDALQLEYSYLLTSQLESQRIYWENKIVRIEKDTAEEINNMKTKFKETIEKCDNLEHKLNDLLKEKQSVERKCTQLNTKVAKLTNELKEEQEMNKCLRANQVLLQNKLKEEERVLKETCDQKDLQITEIQEQLRDVMFYLETQQKINHLPAETRQEIQEGQINIAMASASSPASSGGSGKLPSRKGRSKRGK
On to B2, for which the Kd in [5] stood at 6.27 nM; in assay [6] it was 5.19 nM; in [7], 11.3 nM. Also, the figures for the koff in assay [8], in assay [9] and in assay [10] were 0.00302 s⁻¹, 0.00264 s⁻¹ and 0.00395 s⁻¹, respectively.
